Numbering of substitutions follows the chain as printed. Names and notes keep the numbering of the source.

The source of these data is patent US20250074980A1 (BRIGHAM AND WOMEN S HOSPITAL, published 2025).

In assay [1] the target is T1, His-tagged CEACAM1 (human, UniProt P13688 35-428).
T1 construct: 45 kDa SPR analyte; also called CEACAM1-HIS; CEACAM1 analyte
T1 sequence: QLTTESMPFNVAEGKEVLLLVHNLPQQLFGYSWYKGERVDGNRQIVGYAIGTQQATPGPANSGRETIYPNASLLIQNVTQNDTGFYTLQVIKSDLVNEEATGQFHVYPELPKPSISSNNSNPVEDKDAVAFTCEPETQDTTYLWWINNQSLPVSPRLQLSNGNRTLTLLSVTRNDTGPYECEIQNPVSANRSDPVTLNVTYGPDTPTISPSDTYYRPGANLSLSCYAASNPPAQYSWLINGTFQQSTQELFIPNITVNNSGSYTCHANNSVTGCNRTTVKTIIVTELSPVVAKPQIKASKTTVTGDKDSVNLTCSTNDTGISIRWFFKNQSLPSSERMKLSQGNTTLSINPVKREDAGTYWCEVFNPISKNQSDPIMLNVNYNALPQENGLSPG
The experiment in a line: SPR single-cycle, purified IgG captured. The method, boiled down: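 Purified IgG was captured on a Series S Protein A chip in a Biacore T200 at 25° C in HBS-P+ (pH 7.4), with His-tagged CEACAM1 as the analyte in single-cycle kinetics surface plasmon resonance. Kon, koff and Kd were fitted from signals corrected for the reference channel and blank runs, and relative KD was calculated against the parent antibody tested alongside.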

Assay [2] has as its target T1, His-tagged CEACAM1. In words: SPR single-cycle, supernatant IgG captured. On the procedure: In order to assess the binding of the humanized, affinity matured reformatted lead IgGs, single-cycle kinetics analysis was performed on crude supernatants using a Biacore T200 running Biacore T200 Control Software V2.0.1 and Biacore T200 Evaluation Software V3.0. Antibodies were diluted in HBS-P+ to a final concentration of 0.5 μg/ml. At the start of each cycle, antibodies were loaded onto Fc2, Fc3 and Fc4 of the Protein A chip. IgGs were captured at a flow rate of 10 μl/min to give an immobilisation level (RL) of ˜100 RU (a level calculated to obtain a Rₘₐₓ of ˜50-150 RU once the analyte is bound). The surface was then allowed to stabilize. Single-cycle kinetics data was obtained with CEACAM1 as the analyte at a flow rate of 80 μl/min to minimize any potential mass transfer effects. Multiple repeats with the parent (VH1/Vκ8 S29A) antibody were performed to check the stability of the surface and analyte over the kinetic cycles. The signal from the reference channel Fc1 (no antibody) was subtracted from that of Fc2, Fc3 and Fc4 to correct for differences in non-specific binding to the reference surface. A three point, two-fold dilution range from 70 nM to 280 nM CEACAM1 without regeneration between each concentration was used. The signal from each antibody blank run (no CEACAM1) was subtracted to correct for differences in surface stability. The association phase for the three injections of increasing concentrations of CEACAM1 was monitored for 80 seconds each time and a single dissociation phase was measured for 150 seconds following the last injection of CEACAM1. Regeneration of the Protein A surface was conducted using two injections of 10 mM glycine-HCL pH 1.5 followed by a stabilization period of 250 seconds.

Assay [3] deals with T2, CEACAM8 on transfected HeLa cells (human, UniProt P31997 35-320).
T2 construct: whole, on cells; also called HeLa-CEACAM8; HeLa C8
T2 sequence (looked up): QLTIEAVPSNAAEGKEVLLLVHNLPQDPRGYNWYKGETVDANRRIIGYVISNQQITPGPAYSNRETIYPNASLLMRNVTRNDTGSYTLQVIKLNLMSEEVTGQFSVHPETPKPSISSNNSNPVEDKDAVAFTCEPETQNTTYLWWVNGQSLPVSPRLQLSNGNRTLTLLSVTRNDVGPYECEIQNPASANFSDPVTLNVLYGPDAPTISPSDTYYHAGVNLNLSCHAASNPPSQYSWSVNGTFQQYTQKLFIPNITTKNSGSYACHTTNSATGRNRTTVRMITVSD
In words: flow cytometry, transfected HeLa. The method, boiled down: (§1)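 Flow cytometry was done on HeLa cells stably expressing single CEACAM family members, cultured in DMEM with 10% fetal bovine serum at 37° C, 5.0% CO₂, and stained with the test antibody, then a fluorochrome-conjugated isotype-specific secondary antibody, with DAPI for viability. Staining of each transfectant serves as the readout of binding selectivity.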

Assay [4] concerns the target T3, CEACAM3 on transfected HeLa cells (human, UniProt P40198 35-252).
T3 construct: whole, on cells; also called HeLa-CEACAM3; HeLa C3
T3 sequence (looked up): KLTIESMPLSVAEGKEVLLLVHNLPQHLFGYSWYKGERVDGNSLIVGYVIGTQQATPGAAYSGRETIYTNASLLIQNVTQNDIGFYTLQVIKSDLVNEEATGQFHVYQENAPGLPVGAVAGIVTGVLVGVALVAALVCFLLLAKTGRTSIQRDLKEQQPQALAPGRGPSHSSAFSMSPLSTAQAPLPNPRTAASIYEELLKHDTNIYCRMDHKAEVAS
In words: flow cytometry, transfected HeLa. An outline of the steps:
as §1
A general note: Flow cytometry measures light scatter and fluorescence of single cells or particles in a stream.

The target in assay [5] is T1, His-tagged CEACAM1. In words: SPR single-cycle, IgG captured. The protocol:
As an alternative approach to assess the binding of the 36 antibody combinations and the three control antibodies to CEACAM1, a kinetic analysis was performed on a Biacore T200 (serial no. 1909913) running Biacore T200 Evaluation Software V2.0.1 (Uppsala, Sweden). All experiments were run at 25° C. with HBS-P+ running buffer (pH 7.4) (GE Healthcare, cat. no. BR100671). All kinetic experiments were performed using His-tagged CEACAM1 as the analyte. For all experiments, antibodies were immobilized onto a Series S Protein A sensor chip surface. For kinetic experiments, the amount of immobilized/captured ligand was limited to avoid mass transfer effects at the surface of the chip with the surface ideally having an analyte binding level (Rₘₐₓ) of 50-150 RUs. Using a MW of 45 kDa for the CEACAM1 analyte, 150 kDa for the antibody ligand (estimated value for IgG), 50 RU for Rmax and the stoichiometry (Sm) as 2 due to the ability of each antibody to bind 2 target molecules, a target response level of ˜75 RUs was set for capture of all the sample antibodies.
Single cycle analysis of the 36 antibody combinations and the three control antibodies was performed on purified antibodies (Vκ1 to Vκ6 variants) or on the supernatants of the transiently transfected HEK EBNA cells (Vκ7 to Vκ12 variants). In some instances, where supernatant was not available, purified chimeric antibody VH0/Vκ0 was spiked into HEK EBNA culture medium to use as a positive control. Antibodies were diluted in HBS-P+ to a concentration of 1 μg/ml (as determined by an IgG quantitation ELISA). At the start of each cycle, antibodies were loaded onto Fc2, Fc3 and Fc4 of a protein A chip and IgG captured at a flow rate of 8 μl/min to give an RU of ˜75. The surface was then allowed to stabilize. Single cycle kinetic data was obtained at a flow rate of 50 μl/min to minimize any potential mass transfer effects. Multiple repeats of the chimeric antibody VH0/Vκ0 were performed to check the stability of the surface and analyte over the kinetic cycles. The signal from the reference channel Fc1 (no antibody) was subtracted from that of Fc2, Fc3 and Fc4 to correct for differences in non-specific binding to a reference surface. A 5 point 2-fold dilution range from 3.125 to 50 nM CEACAM1 without regeneration between each concentration was used.

For assay [6], the target named is T4, CEACAM6 on transfected HeLa cells (human, UniProt P40199 35-320).
T4 construct: whole, on cells; also called HeLa-CEACAM6; HeLa C6
T4 sequence (looked up): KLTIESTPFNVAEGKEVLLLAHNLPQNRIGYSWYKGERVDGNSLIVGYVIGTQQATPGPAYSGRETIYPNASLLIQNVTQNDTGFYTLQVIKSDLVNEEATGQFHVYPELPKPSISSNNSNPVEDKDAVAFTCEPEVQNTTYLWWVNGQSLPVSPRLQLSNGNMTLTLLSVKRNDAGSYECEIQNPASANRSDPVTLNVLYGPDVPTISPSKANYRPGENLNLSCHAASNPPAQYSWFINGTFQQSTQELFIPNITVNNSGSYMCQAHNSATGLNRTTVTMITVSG
The experiment in a line: flow cytometry, HeLa-CEACAM6 transfectants, % positive cells. On the procedure:
Binding selectivity for CEACAM1 was tested for the 24 humanized antibody variants that bound to CEACAM1 (see Table 3), as well as the chimeric control antibody VH0/Vκ0, by flow cytometry on HeLa cells transfected with CEACAM1, 3, 5, 6 and 8. […] There was no evidence of any staining of the HeLa-CEACAM3 or HeLa-CEACAM8 transfectants. […] Due to its favorable affinity to and selectivity for CEACAM1 as well as its favorable expression level, VH1/Vκ8 was chosen as the framework for affinity maturation.

Assay [7] has as its target T1, His-tagged CEACAM1. The experiment in a line: SPR single-cycle, supernatant IgG captured. An outline of the steps: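 IgG came from supernatants of HEK EBNA cells transiently transfected by PEI in 6-well plates and harvested 5-7 days later. Supernatants were quantified by ELISA and filtered. Single-cycle surface plasmon resonance was run on a Biacore T200 at 25° C in HBS-P+ (pH 7.4), with IgG captured on Protein A and His-tagged CEACAM1 as analyte. Kon, koff and Kd were fitted, and relative KD was calculated against the parent antibody assayed in the same experiment.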
The source holds these as a separate data set.

B1: 8H3_9B3/CP08E05 (antibody, IgG4, V domains shown)
VH: EVQLLESGGGLVQPGGSLRLSCAASGFTFNAHAISWVRQAPGKGLEWVATISSGGTYTYYPDSVKGRFTISRDNSKNTLYLQMNSLKAEDTAMYYCARHDFDYFPYWFAHWGQGTLVTVSS
VL: EIVLTQSPATLSLSPGERATLSCRANSAVSYMYWYQQKPGQAPRPWIYLTSNRATGVPARFSGSGSGTDYTLTISSLEPEDFAVYYCQQWTTNPPTFGQGTKLEIK
notes: IgG4 (S241P), kappa
As usually defined, the Kd is the concentration at which binding is half-saturated. A word on the koff: it is a measure of how fast the partners let go of each other. What is called kon is the second-order rate constant of association. A lower kon goes with slow association. With B1, in the assay with His-tagged CEACAM1 [1], the Kd was determined as 69 nM, the koff turned out to be 0.0065 s⁻¹, the kon was found to be 95000 M⁻¹ s⁻¹ and the “relative KD to parent” value stood at 6.9. Further, in the assay with His-tagged CEACAM1 [2], the dissociation constant (Kd) came out at 77 nM, the koff was 0.0072 s⁻¹, the kon was determined as 93000 M⁻¹ s⁻¹ and the “relative KD to parent” value is 7.3.

B2: VH1/Vκ1 (antibody, IgG4, V domains shown)
VH: B1 VH with T28I, N30S, A31S, A33G, I34M, F104D, P105A, Y106A, H110Y
VL: QIVLTQSPALLSLSPGERATMSCSANSSVSYMYWYRQKPGQAPKPWIYLTSNLASGVPARFSGSGSGTDYTLTISSLEAEDFATYYCQQWSSNPPTFGQGTKLEIK
notes: IgG4 (S241P), kappa
In the case of B2, the binding result in assay [3], in assay [4] and in assay [6] was “no binding” in each case. The Kd with His-tagged CEACAM1 [5] was determined as 85 nM. Further, the “relative KD to VH0/Vκ0” value with His-tagged CEACAM1 [5] came to 2.

B3: CP09C02/CP08F05 (antibody, IgG4, V domains shown)
VH: B1 VH with G26E, N30S, A31D, I34M, D100G, F104D, P105A, Y106A, H110Y
VL: B1 VL with T92S
notes: IgG4 (S241P), kappa
B3: in the assay with His-tagged CEACAM1 [7], the Kd is 100 nM, the koff was determined as 0.011 s⁻¹, the on-rate constant (kon) came to 110000 M⁻¹ s⁻¹ and the “relative KD to parent” value was 5.5. For the same molecule, in the assay with His-tagged CEACAM1 [1], the dissociation constant Kd was 95 nM, the koff is 0.01 s⁻¹, the on-rate constant (kon) amounted to 110000 M⁻¹ s⁻¹ and the “relative KD to parent” value stood at 5.

B4: 8H3_9B3/Vκ8 S29A (antibody, IgG4, V domains shown)
VH: B1 VH
VL: B1 VL with T91S, T92S
notes: IgG4 (S241P), kappa
As to B4, in the assay with His-tagged CEACAM1 [1], binding was put at a Kd of 67 nM, the koff amounted to 0.0062 s⁻¹, the kon was 92000 M⁻¹ s⁻¹ and the “relative KD to parent” value was determined as 7.1. Moreover, in the assay with His-tagged CEACAM1 [2], binding was characterised by a dissociation constant (Kd) of 77 nM, the koff worked out at 0.0069 s⁻¹, the association rate constant (kon) stood at 90000 M⁻¹ s⁻¹ and the “relative KD to parent” value was 7.2.

B5: 8H3_9C2/CP08F05 (antibody, IgG4, V domains shown)
VH: B1 VH with G26E, N30S, A31D, I34M, D100G
VL: B1 VL with T92S
notes: IgG4 (S241P), kappa; also called 8H3_9C2/CPO08_F05
Turning to B5, in the assay with His-tagged CEACAM1 [1], the Kd is 76 nM, the off-rate constant (koff) stood at 0.0055 s⁻¹, the on-rate constant (kon) was 73000 M⁻¹ s⁻¹ and the “relative KD to parent” value was found to be 6.3. Moreover, in the assay with His-tagged CEACAM1 [2], the affinity, expressed as Kd, was 93 nM; the koff turned out to be 0.0061 s⁻¹; the kon was 66000 M⁻¹ s⁻¹; the “relative KD to parent” value was 6.

B6: VH1/Vκ4 (antibody, IgG4, V domains shown)
VH: B1 VH with T28I, N30S, A31S, A33G, I34M, F104D, P105A, Y106A, H110Y
VL: B1 VL with A28S, V57I, V84T, T91S, T92S
notes: IgG4 (S241P), kappa
As for B6, the binding result in assay [3], in assay [4] and in assay [6] was “no binding” in each case. In addition, in the assay with His-tagged CEACAM1 [5], the dissociation constant (Kd) was 131 nM. For the same molecule, the “relative KD to VH0/Vκ0” value in the assay with His-tagged CEACAM1 [5] amounted to 3.1.

B7: 8H3_9B3/CP08F05 (antibody, IgG4, V domains shown)
VH: B1 VH
VL: B1 VL with T92S
notes: IgG4 (S241P), kappa
Regarding B7, in the assay with His-tagged CEACAM1 [1], binding was put at a Kd of 59 nM, the koff was determined as 0.0056 s⁻¹, the kon was 95000 M⁻¹ s⁻¹ and the “relative KD to parent” value came out at 8. In addition, in the assay with His-tagged CEACAM1 [2], the Kd stood at 70 nM, the off-rate (koff) came out at 0.0063 s⁻¹, the on-rate (kon) is 90000 M⁻¹ s⁻¹ and the “relative KD to parent” value amounted to 8.
